Measurements taken from the DeepSol protein solubility set.

Experiment: soluble on expression in E. coli; label from the status in PepcDB or PDB records

| Sequence | soluble on expression in E. coli |
| --- | --- |
| MGSDKIHHHHHHMLDPSLLGHRFRRRPWAMFEVLTPLHIGNGNELTPVDFYPLGDRIIVLDTEKLINDLLRLGVEVEELLDFLRNPPGSLYLWRGYLEKLHLDPRNYARYSLRIRGELGRESSRIKEFIKIKGKPYIPGTSLKGAIRTAVLYKVLKDCGDVPTVVEALGKYGKTTGNIIRAITHPGNQDLLDYYLFYLGRGNVRGKQADDILEAIVFGFEAERRFRYEPKRDPMKALIVRDSRLIPLDNLSVYEVRVVGWGSSIPIWVEALDPGTRFEAEVKVDRELLRIGSDYFNGLLWHCLAGEDFEEFVWKAVEEFYGELAKLDNVKERDVIRLGWGSGWISMTVGILLMRKRGWERVRRKLGLGKNPHTNKIVERFPKTKRLANGQPMGWIKI | not soluble |
| MGSDKIHHHHHHMLYRTNPKNGDKLSILGFGAMRLPTKEDGSIDEEKATKMVRYAIDNGVNLVDTAWPYHMGECEPFLARALSEGYREKVKLSTKLPTWAVNTREDMDKFLNAQLEKLNTKQIDYYLLHTLTKASWAKIKDLGVIDFLNSAKEDGRIKNAGFSYHGMQEDFAPIVDDYNWDFCLIQYNYLDEKVQAGTKGLKYAASKGLGVFVMEPLRGGNLAGKTPEEVMEIWNKADKKRTTVEWALRWVWNHPEVTSVLSGMTEPEQLEENIKIAEEGYPNSLTQKELGLIEQAALKYGELLKINCTGCGYCMPCPANVDIPTCFGIYNNLHMFHDETQRFQYFATLSDIFWTNEPHFASQCTNCGICIEKCPQYIQIPEMLEKVVAEFEGPDNDEKMAMVKSVFKM | not soluble |
| MPTSELTKERDLRDSKPIWADTPRTGIRSTHTPAANHYDTIVVGAGISGALVSHALHRPGQTMLIIDRREPVMGSSVASTAMIQHEIDTPLTELRKMIGKDAADRAWQRSARAVLRLEEIVSSLGISCSMKRKQALYLAGDEMGSRALKAEAAAREEAGIEARFLSTGELREQYGLDRTAAILSDISASANPAQLTAGLLRHTAAAGAEIVSKLEITDLRNLGDEVVLATADGKILSARSVVFCTGYEFLKMLESPKHQIISTWALASKKGLDLPDWLESHIVWEASDPYLYLRTDRDGRVIAGGEDEENPTAYQSERKLTAKAEAIRRKVEKLIGIDMGAPDYRWAAAFGTTTTGLPLIGAVPGMKNVYAVMGFGGNGITFSQIAAEIVAAAVNGGKDPDADLFRFGLEHHHHHH | soluble |
| MGSDKIHHHHHHMFVQHDERSRPCCCSFISFKYLKTTTPQEEEMPKKPKPNNFHDELNFARFGVISMHSRIDREVTSWKSEFTINGRTFRIEAITPEGRPHGIDTDTLVAVETLFVASSCPEDNWVHTTAYEMRELMGLGNNGDSYHRLRQSLRRLYLTSVIVGRKTSVANASGRVTWDNVGVRFLEGIRYRDAEDANALSMLDGEATLSIRLGEQLAASIRNGVSQVLDGQLLHQLEQPPARALYRTLQAHRRQDDGTLLDQLRVPLAEWRLATGLTTERTDLVRRALEAAHDELLANRYLEAVSIEGRGKKAYASYTFAERGAADPALVVLLRHAGVTVSRATALAAQHPERVEEACGFWKAAGPARAARYVIPAAWLRTSSRIQANISFRKSSSNLAVNVSSGCRS | not soluble |
| MAHHHHHHMTACSARAQAAAAVHTVVVSLTARREWWKHTCALDSASVFIVHTSDCPPPNRYTARAYPLRCEARLSLHVYANLPAPVSRQCITFLSFRGIYLSPLFCCPPLRHSFHAPAHQFQPPPPSSPFPTLPTRATQHHHHCSHTRVHQICPAVPSLSALSNILTVSAMSAKTAAAPSERSFVDRFVRSHAGAATAAGILEIGFFHPFDTIAKRLMANKGSIMRGSTGETAANLNIIVFKKHADAGFLRKVVYLYPGSLYATVYKVFQRVYKFAGQPLVRDFLSSNYRDGFKRYFGEAHKVMEDATAGCLIGLGEVFLLPLDRLKVLSQTNEAAMRSGLLPLLRQEGFRGMYAGTVVTMCRNAPGSFCLFGGTAFTKGYIFGLSDYRHATLFQNMCASTVGACVAIAISNPMDVVKTRVQQQTAAERCSGMAMATAMLKEEGMLSFFKGLTPKIIASAPKLIFAYTMTEFFFKVMNDSKKH | not soluble |
| MHHHHHHSSGRENLYFQGPQDLMVTCTAPVNIAVIKYWGKRDEALILPINSSLSVTLHQDQLKTTTTVAISKDFTEDRIWLNGREEDVGQPRLQACLREIRRLARKRRSTEDGDTLPLSLSYKVHVASVNNFPTAAGLASSAAGYACLAYTLAQVYGVEGDLSEVARRGSGSACRSLYGGFVEWQMGEQADGKDSIARQIAPEWHWPQLRILILVVSADKKQTGSTVGMQTSVETSTLLKFRAESVVPERMKEMTRCIQEQDFQGFAQLTMKDSNQFHATCLDTFPPISYLNDTSRRIIQLVHRFNTHHGQTKVAYTFDAGPNAVIFTLEDTVAEFVAAVRHSFPPAANGDKFLKGLQVAPVLLSDELKAALVVEPSPGGVQYIIATQVGPGPQVLDDTHDHLLGQDGLPQRDL | soluble |
| MMTVLRSQIESILLVVDQPASVAALARATEAAPETVTSVLRSMAQEFEDRGSGIEVRESPEGWRLYTVKRNADVVEKFLLDGSHTKLSRAALETLAVVAYRQPATRAQVAAVRGVNVDGVMRTLQLRGLIREVAINPGTEGVNGSAHRYETTELFLDLLGIDSLERLPDLAPLLPDIDSIDEYF | not soluble |
| MSLTDEQFNPQDEEIEIEAIGVEVSCQPIELYKVLKIANAVSGGGEAKHVISEGYVFVNGDVETRKRCKVFDGDLIEFNQEFYLVICDAPVTEPESFDTQPELASSHKPTKTQKKSSANTSAKSKPSKNNKTVSGQKKAKNDKKSPQSDSKSPSGRSAIRFFEGGSHHHHHH | soluble |
| MGHHHHHHSHMDPEVTLLLQCPGGGLPQEQIQAELSPAHDRRPLPGGDEAITAIWETRLKAQPWLFDAPKFRLHSATLAPIGSRGPQLLLRLGLTSYRDFLGTNWSSSAAWLRQQGATDWGDTQAYLADPLGVGAALATADDFLVFLRRSRQVAEAPGLVDVPGGHPEPQALCPGGSPQHQDLAGQLVVHELFSSVLQEICDEVNLPLLTLSQPLLLGIARNETSAGRASAEFYVQCSLTSEQVRKHYLSGGPEAHESTGIFFVETQNVRRLPETEMWAELCPSAKGAIILYNRVQGSPTGAALGSPALLPPL | not soluble |
| GYDHKAIGITAKGAWEAVKRHFRESFNHDIQTTPFTCIGVGDMSGDVFGNGMLLSKQTKLIAAFDHRDIFIDPDPNIAESYTERMRLFQLPRSSWQDYDQTKLSKGGGIFSRTEKTITLSPEAAKAIGFAKQTGTPFEIISALLKAPVDLLWFGGIGTYIRATTETDAQVGDRANDALRITGEQVRAKVIGEGANLGVTQRGRIEYVLNGGRCNTDAIDNSAGVNCSDVEVNIKIVLASALRAKTLTRETRNELLKKMTPQVEQLVLRNNYLQTLALSLAESQSAADL | not soluble |
| GPGSMAASSVASVSATKASALAAKKAEKDAHDSRSLFEEYEQLSKDIKNIQLKTMICRTETHQLMKEESAAKQEVKRIQAVPLVLGNFVEVVDSVRGIVSGTSGSQYFVRILSTLNKEHLKPNVSVGLHKSSNACVQLLPSETDATITLLNSSDRPDVTYSDVGGLDMQKQEIREAVELPLTHAGLYEQIGIDPPRGVLLYGPPGTGKTMLVKAVARHTKASFIRVVGSEFVQKFLGEGPRKVRDVFRLARENAPSIIFIDEVDSIATKRFDAQTGADREVQRVLVELLTQMDGFDQTTNVKVIMATNRWDTLDPALLRPGRLDRKIEFPYPDRRQKRLVFQVCTSKMNLSPEVDLEDYVTRPEKLSGADIQSICQEAGMLAVRKNRYVILPRDIENAYRTVIKKTGDETYDFYS | not soluble |
| EVVVRRLSDPVELEEAVEVHARAWGSRDYREVVAPHILRALVDNGGLVLGAFVGGRMVGASYGWFVGCGEGRYFYSHATGVEEGYKYRGVGFALKARQREEVLREGVSLAKWTFDPLQSLNTRFNLAKLGAVYRVYKVNYYGEMTDEINRGLGSDRVVAEWWL | not soluble |
| MSLANQVLAVNDDLPIRTHKPVHSGKVRSVYWLTEEDSARLIKEKGYDVAPDAPLAIMVISDRISAFDCIWHGEGGLKGVPGKGAALNAISNHWFKLFKDNGLADSHILDIPHPFVWIVQKAKPVKIEAICRKYITGSMWRAYANGEREFCGIQLPEGLEKDKALPNLLMTPSTKGILKGIPGVPEADDVNITRQNIVDNYEAFNFSSAEDIAQYEKLLKEGFNVISQALEGIDQIFVDTKFEFGYVHDAAGNEKLIYMDEVGTPDSSRIWDAKEYQAGNIVENSKEGFRQFLLNHFPDPDILLNKERMPEREALARDNDLPVESLMDISRTYIGIAEKITGKPITLSENPKAEIIEILSKEYGLIDEGHHHHHH | soluble |
| MNNSRLFRLSRIVIALTAASGMMVNTANAKEEAKAATQYTQQVNQNYAKSLPFSDRQDFDDAQRGFIAPLLDEGILRDANGKVYYRADDYKFDINAAAPETVNPSLWRQSQINGISGLFKVTDKMYQVRGQDISNITFVEGEKGIIVIDPLVTPPAAKAALDLYFQHRPQKPIVAVIYTHSHTDHYGGVKGIISEADVKSGKVQVIAPAGFMDEAISENVLAGNIMSRRALYSYGLLLPHNAQGNVGNGLGVTLATGDPSIIAPTKTIVRTGEKMIIDGLEFDFLMTPGSEAPAEMHFYIPALKALCTAENATHTLHNFYTLRGAKTRDTSKWTEYLNETLDMWGNDAEVLFMPHTWPVWGNKHINDYIGKYRDTIKYIHDQTLHLANQGYTMNEIGDMIKLPPALANNWASRGYYGSVSHNARAVYNFYLGYYDGNPANLHPYGQVEMGKRYVQALGGSARVINLAQEANKQGDYRWSAELLKQVIAANPGDQVAKNLQANNFEQLGYQAESATWRGFYLTGAKELREGVHKFSHGTTGSPDTIRGMSVEMLFDFMAVRLDSAKAAGKNISLNFNMSNGDNLNLTLNDSVLNYRKTLQPQADASFYISREDLHAVLTGQAKMADLVKAKKAKIIGNGAKLEEIIACLDNFDLWVNIVTPN | soluble |
| MEKVMKCHRVEELLQLLEPEWHKDSELNLIQFLLKLAQEAGYQGALEDLTDDVLIYHLKMRNSAKDAVIPGLKKDYEDDFKTAILRARGIIK | not soluble |
| VGVGYFDTIEIKTILSLLQIIDNPMQDIPLISVLKSPIFGFTPEDLIDIRVQSKDKIFYEVLKSTAEYDGFTDSQNENESEFIPSEECINKSKDFLIKLKEFKEKSMYMSTDEFIWYLYTRTGYYAYVGALPGGSQRQANLKVLFERAKQFEETSLKGIFNFVNFIEKLKKSSSDMGSAKT | soluble |
| MICNCFLLIIVTLVISNCDGICLNHEGWGNVGSVFTDPLCNVWCEIKLCGPGQCIEDPMTTAPARCVCEKCYRDNSGNAVYPGGNNDYQQQAQMNRERQLDRQYNRQLRQQNRMNKAWQRGWQ | not soluble |
| MAHHHHHHMRNVLFNGPMIPEIDAGYNVQVNGVSVNFLKDPFCFRNVVIENAYYKNKLLYKNFNDDNVNKNITNHIKRENIVELDKEFNECIKDSLNNNHVHIKKNEPDYKLNDIKSPIYKERTKYTPKIIEVIKTNYNVPHDERVKIHKENLMYMNNIEYKKANEIVEKVILTIKNETIQKPVELANDEPNNILKPNNIFKKMLL | not soluble |
| MGSDKIHHHHHHMNKELETLIMSAVDLPTIPVVATKVIELIEQEDVTIEKLATAVSSDPAVAARILKLSNSAYYGCQRQINTLSAAIMLLGFKTLKSLVIAASLKQLNRRFGLTEKMLWEHSVGAALAGRVIATQGRFINEETGFLVGLFHDLGKTIMSNRDPQKFQGVMMRCYNEGIPFAEAERSVYPYSHAEVGALVIRKWNFPESLSTAIMHHHQFGSAPITDQYDLFLTATASLANKFCKKLGIGDRDADDDLNLTNAPEAMLLGFTSDTAEKALATFQETFEENKSFFLND | not soluble |
| MEVHKAITAHSRKQNESVKACLQLDAQREAAIEAAVSLASNGKEFSVDVINVVTKQINDLAKNGVTLQRKYVTEEMVMEYVSRLKKKEGR | not soluble |
| SRIKMKKARKILAEKRAAAPVVSVPCIPPHRLSKITNRLTIQRKSQFMQRLHSYWTLKRQSRNGVPLLRRLQTHLQSQRNCDQVGRDSEDKNWALKEQLKSWQRLRHDLERARLLVELIRKREKLKRETIKVQQIAMEMQLT | not soluble |
